Data taken from IntAct's records for PubMed 17703188.

B1: Discoidin domain-containing receptor 2 (Homo sapiens), Q16832 (parent)
chain: MILIPRMLLVLFLLLPILSSAKAQVNPAICRYPLGMSGGQIPDEDITASSQWSESTAAKYGRLDSEEGDGAWCPEIPVEPDDLKEFLQIDLHTLHFITLVGTQGRHAGGHGIEFAPMYKINYSRDGTRWISWRNRHGKQVLDGNSNPYDIFLKDLEPPIVARFVRFIPVTDHSMNVCMRVELYGCVWLDGLVSYNAPAGQQFVLPGGSIIYLNDSVYDGAVGYSMTEGLGQLTDGVSGLDDFTQTHEYHVWPGYDYVGWRNESATNGYIEIMFEFDRIRNFTTMKVHCNNMFAKGVKIFKEVQCYFRSEASEWEPNAISFPLVLDDVNPSARFVTVPLHHRMASAIKCQYHFADTWMMFSEITFQSDAAMYNNSEALPTSPMAPTTYDPMLKVDDSNTRILIGCLVAIIFILLAIIVIILWRQFWQKMLEKASRRMLDDEMTVSLSLPSDSSMFNNNRSSSPSEQGSNSTYDRIFPLRPDYQEPSRLIRKLPEFAPGEEESGCSGVVKPVQPSGPEGVPHYAEADIVNLQGVTGGNTYSVPAVTMDLLSGKDVAVEEFPRKLLTFKEKLGEGQFGEVHLCEVEGMEKFKDKDFALDVSANQPVLVAVKMLRADANKNARNDFLKEIKIMSRLKDPNIIHLLAVCITDDPLCMITEYMENGDLNQFLSRHEPPNSSSSDVRTVSYTNLKFMATQIASGMKYLSSLNFVHRDLATRNCLVGKNYTIKIADFGMSRNLYSGDYYRIQGRAVLPIRWMSWESILLGKFTTASDVWAFGVTLWETFTFCQEQPYSQLSDEQVIENTGEFFRDQGRQTYLPQPAICPDSVYKLMLSCWRRDTKNRPSFQEIHLLLLQQGDE

Variants of: B1
Settings: with coba2_human COL11A2, P13942
Chain of coba2_human COL11A2, P13942 (P13942 whole entry): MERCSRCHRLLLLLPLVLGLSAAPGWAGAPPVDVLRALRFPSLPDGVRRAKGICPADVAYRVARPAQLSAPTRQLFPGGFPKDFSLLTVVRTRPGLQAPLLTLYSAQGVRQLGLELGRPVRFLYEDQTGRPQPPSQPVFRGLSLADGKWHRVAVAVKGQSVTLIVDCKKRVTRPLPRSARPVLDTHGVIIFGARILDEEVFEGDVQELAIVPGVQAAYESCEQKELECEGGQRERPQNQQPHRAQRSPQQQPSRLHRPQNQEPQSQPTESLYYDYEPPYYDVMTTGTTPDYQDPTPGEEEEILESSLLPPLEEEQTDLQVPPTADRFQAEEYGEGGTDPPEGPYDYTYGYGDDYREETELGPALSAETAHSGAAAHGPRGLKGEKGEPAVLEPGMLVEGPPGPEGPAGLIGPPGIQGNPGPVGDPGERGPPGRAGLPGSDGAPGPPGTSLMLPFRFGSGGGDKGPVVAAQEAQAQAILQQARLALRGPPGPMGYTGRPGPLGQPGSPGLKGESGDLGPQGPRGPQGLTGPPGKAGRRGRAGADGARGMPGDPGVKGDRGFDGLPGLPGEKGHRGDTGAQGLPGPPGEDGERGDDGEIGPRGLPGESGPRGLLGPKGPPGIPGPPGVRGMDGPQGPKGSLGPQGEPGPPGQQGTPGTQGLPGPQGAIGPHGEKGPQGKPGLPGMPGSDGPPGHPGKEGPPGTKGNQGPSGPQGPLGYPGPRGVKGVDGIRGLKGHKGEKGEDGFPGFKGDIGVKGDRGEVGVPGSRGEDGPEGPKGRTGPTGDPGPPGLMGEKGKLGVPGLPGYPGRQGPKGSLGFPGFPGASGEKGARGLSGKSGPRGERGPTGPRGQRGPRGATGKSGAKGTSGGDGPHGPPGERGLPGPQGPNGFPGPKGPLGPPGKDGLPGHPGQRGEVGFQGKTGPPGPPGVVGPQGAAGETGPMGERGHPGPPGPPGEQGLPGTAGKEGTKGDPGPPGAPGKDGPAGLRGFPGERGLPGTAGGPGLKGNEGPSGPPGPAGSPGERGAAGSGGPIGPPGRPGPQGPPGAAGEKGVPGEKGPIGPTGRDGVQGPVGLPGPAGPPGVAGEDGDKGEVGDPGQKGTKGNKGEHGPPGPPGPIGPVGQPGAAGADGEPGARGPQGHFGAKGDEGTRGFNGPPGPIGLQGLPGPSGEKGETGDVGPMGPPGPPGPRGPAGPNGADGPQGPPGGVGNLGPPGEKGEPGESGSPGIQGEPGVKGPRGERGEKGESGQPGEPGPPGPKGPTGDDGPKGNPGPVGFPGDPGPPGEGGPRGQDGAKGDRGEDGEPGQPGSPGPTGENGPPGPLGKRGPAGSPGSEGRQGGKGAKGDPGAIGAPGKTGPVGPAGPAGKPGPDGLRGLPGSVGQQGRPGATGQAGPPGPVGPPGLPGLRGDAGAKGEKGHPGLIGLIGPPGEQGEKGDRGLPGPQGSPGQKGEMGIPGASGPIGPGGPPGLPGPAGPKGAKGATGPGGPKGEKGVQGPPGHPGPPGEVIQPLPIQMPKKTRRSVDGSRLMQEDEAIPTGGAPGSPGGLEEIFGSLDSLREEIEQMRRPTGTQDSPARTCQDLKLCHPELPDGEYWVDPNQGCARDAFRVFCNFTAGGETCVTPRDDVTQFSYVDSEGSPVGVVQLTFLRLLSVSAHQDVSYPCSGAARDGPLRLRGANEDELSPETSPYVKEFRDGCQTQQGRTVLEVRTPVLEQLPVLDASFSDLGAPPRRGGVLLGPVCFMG

Effect of a mutation on the interaction, disrupting interaction:
W52A
R105A
E113A
